Experimental data as given in publication PMC11336944, “CWF19L2 is Essential for Male Fertility and Spermatogenesis by Regulating Alternative Splicing” (Advanced Science, 2024).

Target: T1, PRPF8 (mouse (endogenous in testis), UniProt Q99PV0 1-2335)
T1 construct: PRPF8 (pre-mRNA-processing-splicing factor 8), mouse, endogenous in testis and sorted germ cells; also called spliceosome skeleton marker PRPF8; source: endogenous, PD10 WT mouse testis extract; endogenous, lysate of sorted germ cells from Cwf19l2‐SKO and control mice
Assay: co-IP; PRPF8 antibody immunoprecipitation from sorted germ cells of Cwf19l2-SKO mice (CWF19L2 deleted in germ cells), immunoblotting, bands quantified against control mice; IgG as negative control
Details: partners not purified

fold PRPF43 in the PRPF8 co-IP, control over Cwf19l2-SKO, normalised to PRPF8: 1.5 times
B1: PRPF43 (natural protein, mouse (endogenous in testis), UniProt O35286 1-795, looked up)
chain: MSKRHRLDLGEDYPSGKKRAGTDGKDRERDRDREDRSKDRDRERDRGDREREREKEKEKELRASTNAMLISAGLPPLKASHSAHSTHSAHSTHSTHSAHSTHTGHTGHTSLPQCINPFTNLPHTPRYYDILKKRLQLPVWEYKDRFTDILVRHQSFVLVGETGSGKTTQIPQWCVEYMRSLPGPKRGVACTQPRRVAAMSVAQRVADEMDVMLGQEVGYSIRFEDCSSAKTILKYMTDGMLLREAMNDPLLERYGVIILDEAHERTLATDILMGVLKEVVRQRSDLKVIVMSATLDAGKFQIYFDNCPLLTIPGRTHPVEIFYTPEPERDYLEAAIRTVIQIHMCEEEEGDLLLFLTGQEEIDEACKRIKREVDDLGPEVGDIKIIPLYSTLPPQQQQRIFEPPPPKKQNGAIGRKVVVSTNIAETSLTIDGVVFVIDPGFAKQKVYNPRIRVESLLVTAISKASAQQRAGRAGRTRPGKCFRLYTEKAYKTEMQDNTYPEILRSNLGSVVLQLKKLGIDDLVHFDFMDPPAPETLMRALELLNYLAALNDDGDLTELGSMMAEFPLDPQLAKMVIASCDYNCSNEVLSITAMLSVPQCFVRPTEAKKAADEAKMRFAHIDGDHLTLLNVYHAFKQNHESVQWCYDNFINYRSLMSADNVRQQLSRIMDRFNLPRRSTDFTSRDYYINIRKALVTGYFMQVAHLERTGHYLTVKDNQVVQLHPSTVLDHKPEWVLYNEFVLTTKNYIRTCTDIKPEWLVKIAPQYYDMSNFPQCEAKRQLDRIIAKLQSKEYSQY
notes: PRPF43 / PRP43 as printed, mouse, endogenous in testis and sorted germ cells; also called PRP43; ILS complex marker PRPF43; source: endogenous, PD10 WT mouse testis extract; endogenous, lysate of sorted germ cells from Cwf19l2‐SKO and control mice
